{
  "source": "paper PMC8067709",
  "about": "“Crystal Structure of the Epo1-Bem3 Complex for Bud Growth” (International Journal of Molecular Sciences, 2021)",
  "parents": {"B1": {"name": "Bem3^CC1 (1-99) with 6xHis tag, isolated protein [Saccharomyces cerevisiae] / itself (parent)", "chain": "MTDNLTTTHGGSTTLELLAQYNDHRSKKDKSIEHIEKGTCSGKERNPSYDEIFTENIKLKLQVQEYETEIESLEKVIDMLQKNREASLEVVLEQVQNDS"}},
  "data": [
    {"variants_of": "B1", "experiment": "SEC-MALS (MALS coupled with gel filtration)", "settings": "read off a plot", "units": {"molar mass": "kDa"}, "values": [
      {"variant": "chain 1 N56A Y66A", "molar mass": 10},
      {"variant": "chain 1 N56A", "molar mass": 17},
      {"variant": "chain 1 Y66A", "molar mass": 19},
      {"variant": "chain 1 N56A E67A", "molar mass": 18},
      {"variant": "chain 1 E67A", "molar mass": 20},
      {"variant": "chain 1 N56A Y66A E67A", "molar mass": 9.5}
    ]}
  ]
}
